Tests used:
[1] = target: T1, human CCR5 (human, UniProt P51681 1-352); test: told from CCR5 internalization on CD4+ and CD8+ T cells of human PBMC (FACS)
T1 construct: whole, on cells; also called CCR5 receptor
Protocol: (§1) RM and MR induced internalization of CCR5 on T cells is shown in FIGS. 7A and 7B, respectively. Human PBMC were incubated for 30 min at 37° C. with various concentrations of RM (FIG. 7A), MR (FIG. 7B) and RANTES and stained on ice for 1 h with a combination of directly conjugated antibodies against CCR5, CD8 and CD4. Mean channel fluorescence (MCF) of CCR5 was quantified on CD4 and CD8 positive T cells by FACS-analysis. Relative surface expression of CCR5 was calculated as [MCF(exp.)-MCF(negative control)]/[(MCF(medium)-MCF(negative control).
as §1, with “Human” for “RM and MR induced internalization of CCR5 on T cells is shown in FIGS. 7A and 7B, respectively. Human”, “RANTES. Cells were then” for “RANTES and”, “CD4 (CCR5-PE, Pharmingen, CD8-Cychrome, Immunotech and CD4-APC, Immunotech). CD4+ and CD8+ T cells were identified by expression of CD4 and CD8 as well as by their light scatter properties.” for “CD4.”

[2] = target: T2, CD4 on human T cells (human, UniProt P01730 26-458); test: FACS on PBMC, 1 h on ice, detected with anti-6xHis or anti-RANTES (VL-1) antibody
T2 construct: whole, on cells
Protocol: (§2) PBMC were incubated for 1 h on ice with the constructs RM and MR in various concentrations. After washing with PBS, cell bound constructs were detected with an antibody against 6×His (Dianova) or an antibody against RANTES (VL-1) followed by incubation with PE-labelled rabbit-anti-mouse F(ab) fragments (Dako R439). Binding of RM and MR to CD4 on T cells was detected by FACS analysis (FIG. 6A).

[3] = target: T2, CD4 on human T cells; test: FACS on PBMC
Protocol: as §2

T1 sequence (P51681 whole entry): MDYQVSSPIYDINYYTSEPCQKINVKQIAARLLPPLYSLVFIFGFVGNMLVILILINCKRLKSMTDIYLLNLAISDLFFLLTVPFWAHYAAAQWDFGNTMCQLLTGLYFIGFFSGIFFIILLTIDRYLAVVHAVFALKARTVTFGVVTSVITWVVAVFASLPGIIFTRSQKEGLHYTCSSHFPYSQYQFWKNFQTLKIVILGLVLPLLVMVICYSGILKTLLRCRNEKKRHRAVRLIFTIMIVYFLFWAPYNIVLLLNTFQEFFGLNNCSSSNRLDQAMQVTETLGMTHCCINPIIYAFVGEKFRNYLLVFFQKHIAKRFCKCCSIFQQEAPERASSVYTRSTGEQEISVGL

B1: MR construct ((VL) anti-CD4-linker-(VH) anti-CD4-linker-RANTES) (other)
chain: DYKDDDDKDIVLTQSPASLAVSLGQRATISCKASQSVDYDGDSYMNWYQQKSGQPPKLLIYAASNLESGIPARFSGSGSGTDFTLNIHPVEEEDAATYYCQQSIQDPCTFGGGTELEIKGGGGSGGGGSGGGGSQVQLQQSGPELVKPGASVKMSCKASGYTFTDYVINWVKQRTGQGLEWIGEIYPGSGSDYYNENLKDKATLTADKSSNTAYMQLSSLTSEDSAVYFCARKGENGNSLAFAYWGQGTLVTVSAGGGGSGGGGSSPYSSDTTPCCFAYIARPLPRAHIKEYFYTSGKCSNPAVVFVTRKNRQVCANPEKKWVREYINSLQMSHHHHHH
notes: Expressed in the periplasm of E. coli and also in CHO cells; also called antiCD4-RANTES
Q: Does B1 bind [1]?
A: binds

Q: Does B1 bind [2]?
A: binds

B2: RM construct (RANTES-linker-(VH) anti-CD4-linker-(VL) anti-CD4) (other)
chain: SPYSSDTTPCCFAYIARPLPRAHIKEYFYTSGKCSNPAVVFVTRKNRQVCANPEKKWVREYINSLQMSSGGGGSGGGGSDIQLQQSGPELVKPGASVKMSCKASGYTFTDYVINWVKQRTGQGLEWIGEIYPGSGSDYYNENLKDKATLTADKSSNTAYMQLSSLTSEDSAVYFCARKGENGNSLAFAYWGQGTLVTVSAGGGGSGGGGSGGGGDIVLTQSPASLAVSLGQRATISCKASQSVDYDGDSYMNWYQQKSGQPPKLLIYAASNLESGIPARFSGSGSGTDFTLNIHPVEEEDAATYYCQQSIQDPCTFGGGTELEIKHHHHHH
notes: also called RANTES-antiCD4; RANTES-anti-CD4
Q: Does B2 bind [3]?
A: binds

Q: Does B2 bind [1]?
A: binds
